B1: ITK/KD/S361: human ITK kinase domain fragment comprising ITK residues 361-620 (SEQ ID NO. 12) (protein, listed as Homo sapiens)
chain: GSMSELTFVQEIGSGQFGLVHLGYWLNKDKVAIKTIREGAMSEEDFIEEAEVMMKLSHPKLVQLYGVCLEQAPICLVFEFMEHGCLSDYLRTQRGLFAAETLLGMCLDVCEGMAYLEEACVIHRDLAARNCLVGENQVIKVSDFGMTRFVLDDQYTSSTGTKFPVKWASPEVFSFSRYSSKSDVWSFGVLMWEVFSEGKIPYENRSNSEVVEDISTGFRLYKPRLASTHVYQIMNHCWKERPEDRPAFSRLLRQLAEIAESGL
B2: ITK/KD/G354: human ITK kinase domain fragment comprising ITK residues 354-620 (SEQ ID NO. 1) (protein, listed as Homo sapiens)
chain: GSMGKWVIDPSELTFVQEIGSGQFGLVHLGYWLNKDKVAIKTIREGAMSEEDFIEEAEVMMKLSHPKLVQLYGVCLEQAPICLVFEFMEHGCLSDYLRTQRGLFAAETLLGMCLDVCEGMAYLEEACVIHRDLAARNCLVGENQVIKVSDFGMTRFVLDDQYTSSTGTKFPVKWASPEVFSFSRYSSKSDVWSFGVLMWEVFSEGKIPYENRSNSEVVEDISTGFRLYKPRLASTHVYQIMNHCWKERPEDRPAFSRLLRQLAEIAESGL
B3: ITK/KD/Q343: human ITK kinase domain fragment comprising ITK residues 343-620 (SEQ ID NO. 9) (protein, listed as Homo sapiens)
chain: GSMQKAPVTAGLRYGKWVIDPSELTFVQEIGSGQFGLVHLGYWLNKDKVAIKTIREGAMSEEDFIEEAEVMMKLSHPKLVQLYGVCLEQAPICLVFEFMEHGCLSDYLRTQRGLFAAETLLGMCLDVCEGMAYLEEACVIHRDLAARNCLVGENQVIKVSDFGMTRFVLDDQYTSSTGTKFPVKWASPEVFSFSRYSSKSDVWSFGVLMWEVFSEGKIPYENRSNSEVVEDISTGFRLYKPRLASTHVYQIMNHCWKERPEDRPAFSRLLRQLAEIAESGL

Key:
[1] = target: T1, GST-ITK/KD/G354/F437Y (ITK F437Y) (Homo sapiens, UniProt Q08881, F437Y); assay: Tec Family Kinase Assay (DELFIA), F437Y mutant ITK kinase domain; type: biochemical; settings: for IC50: GST-ITK/KD/G354/F437Y mutant; for Fold Difference in IC50: ITK F437Y IC50 versus wild-type ITK IC50
T1 construct: made in house; host or cells: Spodoptera frugiperda Sf21 cells, baculovirus

[2] = target: T2, GST-ITK/KD/G354 (wild-type ITK kinase domain) (Homo sapiens, UniProt Q08881); assay: Tec Family Kinase Assay (DELFIA), wild-type ITK kinase domain; type: biochemical; settings: 15 μM ATP substrate mix
T2 construct: made in house; host or cells: Spodoptera frugiperda Sf21 cells, baculovirus

[3] = Thermal denaturation of ITK constructs (circular dichroism-monitored); type: physicochemical; settings: for Tm: 5 μM construct, pH 7.0 buffer, 230 nm, 2 to 100° C. at 0.2° C./min; for Tm comparison (in words): thermal denaturation studies
Experimental: Thermal denaturation experiments were performed on a Jasco J-720 spectropolarimeter equipped with a Peltier thermostatic cell holder. For each measurement, a 1 cm quartz cuvette was loaded with 5 μM ITK kinase domain construct in a pH 7.0 buffer containing 10 mM sodium phosphate, 100 mM NaCl and 1 mM TCEP. Absorbance data at 230 nm was collected as the temperature was scanned from 2 to 100° C. at a ramp rate of 0.2° C./min. The melting temperature (Tm) for each sample was calculated as the maximum deflection point of the first derivative of the melting transition using Origin (version 7.0).
(§1) A significant obstacle in the process of obtaining the 3-dimensional structure of a protein by X-ray crystallography is the identification of a protein fragment that is amenable to the formation of protein crystals of suitable quality. Since kinases often have multiple domains, one strategy that increases the likelihood of generating protein crystals of the kinase domain (catalytic) fragment has been to delete the other domains. Furthermore, by making a kinase domain fragment analogous to that of a related kinase for which a crystal structure has been determined, one may further increase the probability of generating suitable protein crystals. Using these concepts, the human ITK/KD/Q343 construct was generated. Theory predicts that a more compactly folded protein has a greater probability of producing high quality protein crystals. Therefore, the human ITK/KD/Q343 construct was subjected to limited proteolysis with trypsin to identify any fragments of the construct that are easily accessible to the protease and are thus likely to be less compactly folded. Using this strategy, the human ITK/KD/G354 and ITK/KD/S361 constructs were designed. To prioritize the three human ITK kinase domain protein fragments for crystallization trials, each was assayed for catalytic activity and for structural foldedness by circular dichroism-monitored thermal denaturation. […] Consequently, the ITK/KD/G354 construct was prioritized for structural studies since it was catalytically active and predicted to be tightly folded. To further increase the probability of obtaining suitable crystals, a murine construct (ITK/KD/G353) analogous to the human ITK/KD/G354 construct was generated. This murine ITK kinase domain construct has 3 conservative and 7 non-conservative amino acid substitutions when compared with the human ITK/KD/G354 construct which may alter the conformation or surface properties of the protein thus providing alternative opportunities for crystal formation.

poly Glu4: Tyr1 (PGTYR) = assay: Catalytic activity of ITK kinase domain constructs (kinase assay); type: biochemical; settings: for Kinase Activity: Using 250 nM enzyme; for catalytic activity (in words): human ITK kinase domain fragments
Experimental: ITK is purified as a GST-fusion protein to test for catalytic activity. The kinase activity is measured using DELFIA (Dissociation Enhanced Lanthanide Fluoroimmunoassay) which utilizes europium chelate-labeled anti-phosphotyrosine antibodies to detect phosphate transfer to a random polymer, poly Glu4: Tyr1 (PGTYR). The screen utilizes the Zymark Allegro UHTS system to dispense reagents, buffers and samples for assay, and also to wash plates. The kinase assay is performed in kinase assay buffer (50 mM HEPES, pH 7.0, 25 mM MgCl2, 5 mM MnCl2, 50 mM KCl, 100 μM Na3VO4, 0.2% BSA, 0.01% CHAPS, 200 μM TCEP). Test samples initially dissolved in DMSO at 1 mg/mL, are pre-diluted for dose response (9 doses with starting final concentration of 3 μg/mL, 1 to 3 serial dilutions) with the assay buffer in 384-well polypropylene microtiter plates. […] Background wells are incubated with buffer, rather than 20 μL enzyme. The assay plates are incubated for 30 min at room temperature. Following incubation, the assay plates are washed three times with 100 μL wash buffer (50 mM Tris-HCL, pH 7.4, 150 mM NaCl, 0.05% Tween 20, 0.2% BSA). A 50 μL aliquot of europium-labeled anti-phosphotyrosine (Eu^3+-PT66, Wallac CR04-100) diluted in 50 mM Tris-HCl, pH 7.8, 150 mM NaCl, 10 μM DTPA, 0.05% Tween 40, 0.2% BSA, 0.05% BGG (1 nM final concentration) is added to each well and incubated for 30 min at room temperature. Upon completion of the incubation, the plate is washed four times with 100 μL of wash buffer and 50 μL of DELFIA Enhancement Solution (Wallac) is added to each well. After 15 min, time-resolved fluorescence is measured on the LJL's Analyst (excitation at 360 nm, emission at 620 nm, EU 400 Dichroic Mirror) after a delay time of 250 μs. An IC50 can be obtained by fitting the rates vs. compound/ligand concentration data into a simple competitive inhibitor model. Under these assay conditions, a 3-fold difference in compound potency (IC50) is considered within the variation of the assay. Preferred ligands will have an IC50<1000 nM.
as §1, with “This murine ITK kinase domain construct has 3 conservative and 7 non-conservative amino acid substitutions when compared with the human ITK/KD/G354 construct which may alter the conformation or surface properties of the protein thus providing alternative opportunities for crystal formation.” left out

T1 sequence (Q08881 with tags, fused parts or gaps F437Y): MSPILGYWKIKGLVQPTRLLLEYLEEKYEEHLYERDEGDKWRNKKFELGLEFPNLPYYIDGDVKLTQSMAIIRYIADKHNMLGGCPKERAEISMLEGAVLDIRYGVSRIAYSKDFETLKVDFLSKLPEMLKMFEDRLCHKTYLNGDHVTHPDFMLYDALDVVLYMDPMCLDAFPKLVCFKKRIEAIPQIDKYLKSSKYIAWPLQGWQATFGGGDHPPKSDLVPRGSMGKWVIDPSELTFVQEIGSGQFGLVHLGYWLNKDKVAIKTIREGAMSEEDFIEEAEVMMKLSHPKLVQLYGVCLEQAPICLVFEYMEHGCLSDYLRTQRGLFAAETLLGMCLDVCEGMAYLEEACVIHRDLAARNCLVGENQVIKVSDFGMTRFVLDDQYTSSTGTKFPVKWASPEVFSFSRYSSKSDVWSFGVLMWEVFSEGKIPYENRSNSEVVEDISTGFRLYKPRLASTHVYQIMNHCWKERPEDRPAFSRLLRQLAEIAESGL
T2 sequence (Q08881 with tags, fused parts or gaps): as the sequence (Q08881 with tags, fused parts or gaps F437Y) above, with Y311F counted along it

Molecule	IC50 [1]	Fold Difference in IC50 [1]	IC50 [2]	Tm [3]	Tm comparison (in words) [3]	Kinase Activity (poly Glu4: Tyr1 (PGTYR))	catalytic activity (in words) (poly Glu4: Tyr1 (PGTYR))
Cc1ccc2c(c1)nc(NC(=O)c1ccc(C#N)cc1)n2CCC(N)=O [Compound 3]	500 nM	1.1	440 nM				
CN(C(=O)C1CCCCC1)c1ccc2c(c1)nc(NC(=O)c1ccc(C#N)cc1)n2CCCN1CCCC1=O [Compound 7]	160 nM	10.7	15 nM				
CNc1ccc2c(c1)nc(NC(=O)c1ccc(C#N)cc1)n2CCC(N)=O [Compound 1]	1200 nM	2.6	460 nM				
B1				72.8 °C	highest Tm	30 Fluorescent Units	did not possess activity above background levels
B2				67.2 °C	higher Tm than ITK/KD/Q343	910 Fluorescent Units	showed significant catalytic activity
B3				50.0 °C		2000 Fluorescent Units	showed significant catalytic activity
